B1: FR-B, mouse FRα targeted BiTE (mCD3e scFv 145-2C11 x hFRα scFv MOv19), chimeric BiTE (bispecific antibody)
chain: GEVQLVESGGGLVQPGKSLKLSCEASGFTFSGYGMHWVRQAPGRGLESVAYITSSSINIKYADAVKGRFTVSRDNAKNLLFLQMNILKSEDTAMYYCARFDWDKNYWGQGTMVTVSSGGGGSGGGGSGGGGSDIQMTQSPSSLPASLGDRVTINCQASQDISNYLNWYQQKPGKAPKLLIYYTNKLADGVPSRFSGSGSGRDSSFTISSLESEDIGSYYCQQYYNYPWTFGPGTKLEIKGEAAAKEAAAKEAAAKDIELTQSPASLAVSLGQRAIISCKASQSVSFAGTSLMHWYHQKPGQQPKLLIYRASNLEAGVPTRFSGSGSKTDFTLNIHPVEEEDAATYYCQQSREYPYTFGGGTKLEIKGSTSGSGKSSEGKGQVQLQQSGAELVKPGASVKISCKASGYSFTGYFMNWVKQSHGKSLEWIGRIHPYDGDTFYNQNFKDKATLTVDKSSNTAHMELLSLTSEDFAVYYCTRYDGSRAMDYWGQGTTVTVSSGSGHHHHHH
notes: also called CONT-ENG; Cont-ENG
B2: FR-Bh, human FRα targeted BiTE (hCD3e scFv UCHT1 x hFRα scFv MOv19) (bispecific antibody)
chain: GMDIQMTQTTSSLSASLGDRVTISCRASQDIRNYLNWYQQKPDGTVKLLIYYTSRLHSGVPSKFSGSGSGTDYSLTISNLEQEDIATYFCQQGNTLPWTFAGGTKLEIKGGGGSGGGGSGGGGSGGGGSEVQLQQSGPELVKPGASMKISCKASGYSFTGYTMNWVKQSHGKNLEWMGLINPYKGVSTYNQKFKDKATLTVDKSSSTAYMELLSLTSEDSAVYYCARSGYYGDSDWYFDVWGQGTTLTVFSGEAAAKEAAAKEAAAKDIELTQSPASLAVSLGQRAIISCKASQSVSFAGTSLMHWYHQKPGQQPKLLIYRASNLEAGVPTRFSGSGSKTDFTLNIHPVEEEDAATYYCQQSREYPYTFGGGTKLEIKGSTSGSGKSSEGKGQVQLQQSGAELVKPGASVKISCKASGYSFTGYFMNWVKQSHGKSLEWIGRIHPYDGDTFYNQNFKDKATLTVDKSSNTAHMELLSLTSEDFAVYYCTRYDGSRAMDYWGQGTTVTVSSGSGHHHHHH
notes: also called FRα-specific BiTE

Key:
human CD3ε [1] = target: T1, human CD3ε (human, UniProt P07766 23-207); assay: flow cytometry on human T cells, anti-His tag detection
T1 construct: whole, on cells; The assay stained human T cells; also called hCD3e; CD3e
Description: (§1) The DNA sequence corresponding to the G(EAAAK)3 (SEQ ID NO:9) linker ([…] (SEQ ID NO:8), followed by Mov19 scFv, 6× His Tag, Furin cleavage peptide, SGSG linker+P2A translational skipping sequence, and monomeric enhanced GFP (eGFP) reporter (to monitor transduction efficiency) was PCR amplified from an existing plasmid to generate overlapping DNA fragments amenable to assembly using NEBuilder (FIG. 7A). FR—B and FR-Bh sequences along with GFP reporter genes were inserted into the previously described retroviral vector¹ using NotI and PacI restriction sites, with DNA fragments assembled using NEBuilder HIFI DNA assembly (New England Biolabs). Plasmid sequences were confirmed by Sanger Sequencing, and retroviruses used to transduce human or mouse cells produced in PG13 or PLAT-E retroviral packaging cells lines, respectively. For murine studies, control T cells were either transduced with a retrovirus expressing a codon-optimized Luciferase (Luc2)-P2A-GFP gene and produced in PLAT-E cells or were Mock transduced. […] In all cases, cell culture supernatant from high-titer retrovirus producing clones was collected and used for viral transduction. For initial testing of BiTEs for antigen-specific binding, 293T cells were retrovirally transduced, followed by collection of 293T cell culture supernatants. […]

[2] = target: T2, human Folate Receptor alpha (FRα) (human, UniProt P15328 25-234); assay: flow cytometry, BiTE supernatant on IE9-mp1-hFRa cells, anti-His tag detection
T2 construct: whole, on cells; also called hFRα; hFRa
Description: as §1

mouse CD3ε [3] = target: T3, mouse CD3ε (mouse, UniProt P22646 22-189); assay: flow cytometry, BiTE supernatant on mouse T cells, anti-His tag detection
T3 construct: whole, on cells; The assay stained mouse T cells; also called mCD3e
Description: as §1

human CD3ε [4] = target: T1, human CD3ε; assay: flow cytometry, BiTE supernatant on human T cells, anti-His tag detection
Description: as §1

mouse CD3ε [5] = target: T3, mouse CD3ε; assay: flow cytometry on mouse CD8+ T cells, anti-His tag detection; staining control
Description: as §1

[6] = target: T2, human Folate Receptor alpha (FRα); assay: flow cytometry, BiTE supernatant on FRα+ cancer cells, anti-His tag detection
Description: as §1

T2 sequence (P15328 25-234): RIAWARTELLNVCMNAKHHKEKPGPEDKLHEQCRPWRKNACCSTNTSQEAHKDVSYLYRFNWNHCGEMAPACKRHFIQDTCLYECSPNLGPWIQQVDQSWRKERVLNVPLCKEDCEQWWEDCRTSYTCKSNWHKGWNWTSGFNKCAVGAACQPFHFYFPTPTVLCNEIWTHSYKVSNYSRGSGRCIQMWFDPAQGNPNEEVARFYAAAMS
T3 sequence (P22646 22-189): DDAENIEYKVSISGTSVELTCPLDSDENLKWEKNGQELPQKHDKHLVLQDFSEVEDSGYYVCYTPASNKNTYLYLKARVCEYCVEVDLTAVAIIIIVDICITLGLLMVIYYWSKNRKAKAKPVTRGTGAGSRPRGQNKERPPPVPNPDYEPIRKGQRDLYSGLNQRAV
T1 sequence (P07766 23-207): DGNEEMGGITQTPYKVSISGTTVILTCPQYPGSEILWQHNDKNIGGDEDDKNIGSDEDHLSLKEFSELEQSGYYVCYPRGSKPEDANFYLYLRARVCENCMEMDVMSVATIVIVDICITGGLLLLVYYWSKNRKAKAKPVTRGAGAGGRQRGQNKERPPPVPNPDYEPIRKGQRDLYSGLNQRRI

Binder	binding result (human CD3ε [1])	binding result [2]	binding result (mouse CD3ε [3])	binding result (human CD3ε [4])	binding result (mouse CD3ε [5])	binding result [6]
B1	no binding	binds	binds			
B2				binds	no binding	binds

Source: patent US20240408202A1 (HEALTH RESEARCH, published 2024)
